Source: the RNAGym collection of RNA variant scans (doi:10.1073/pnas.2313332121)
Variants at the floor of the assay were thinned out.

B1: TPR 5TU (parent)
chain: GGAUCUUCUCGAUCUAACAAAAAAGACAAAUCUGCCACAAAGCUUGAGAGCAUCUUCGGAUGCAGAGGCGGCAGCCUUCGGUGGCGCGAUAGCGCCAACGUUCUCAACUAUGACACGCAAAACGCGUGCUCCGUUGAAUGGAGUUUAUCAUG

Variants of: B1
Test: polymerase ribozyme fitness, log enrichment relative to wild type (log ratio); higher = more active; in vitro selection for triplet polymerase activity
Procedure, shortened: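 Each subunit of a heterodimeric triplet polymerase ribozyme was represented by a PCR-built, transcribed mutant library that underwent triplicate single-round in vitro selection with frozen incubation at −7 °C. Extended constructs were recovered by gel excision, streptavidin-bead capture and RT-PCR, and Illumina sequencing of input and output libraries kept genotypes with ≥10 input reads and ≥1 read per output. Fitness is the logarithm of genotype enrichment relative to wild-type enrichment, from inverse-variance-weighted replicate averages, with a logarithm base of 2.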

| Variant | polymerase ribozyme fitness (log ratio) |
| --- | --- |
| U53A A66U | ≤ -4.2 |
| A47G G92C C114U | -2.53 |
| C27G A37C A47C C87G A115C | ≤ -4.2 |
| G88A C118A A120G | ≤ -4.2 |
| C5U G84A A150C | ≤ -4.2 |
| G83A A97G | -0.594 |
| A21C C35A G84A G117A U127G | ≤ -4.2 |
| A52G G71U C96U | -4.1 |
| G124C G140C | -4.05 |
| C10G G42U G58A G86U A97U U101G G141C | ≤ -4.2 |
| C63G A91G | -2.57 |
| A16U G70C G81U A89G | ≤ -4.2 |
| U4C A16C U55A G74U C85U C87U C103U U146A A147C | ≤ -4.2 |
| U82G C87U G92U A98G | -2.69 |
| U13G C85U | -1.63 |
| G11U A37U C87A | -4.14 |
| A37G C54U U55A G86A A89U U109G A138G | ≤ -4.2 |
| U44A G48C C87A A115U C125A | ≤ -4.2 |
| U13A G94C | -1.19 |
| C99U C103A G128A G136U U148G | ≤ -4.2 |
| U9A G141C | -3.23 |
| C14G U102A | -4.05 |
| U102G A121U | -2.32 |
| U53G G71C G86A G143U | ≤ -4.2 |

| Variant | polymerase ribozyme fitness (log ratio) |
| --- | --- |
| A21U C72U U77G U82G G100C U135G | ≤ -4.2 |
| C76A C93A | -3.88 |
| A17U U55G G68U G84A C103A G152A | ≤ -4.2 |
| C5G G50C C85U | -3.69 |
| G68U C99U G117C G143A | ≤ -4.2 |
| A49C C51U A73G | ≤ -4.2 |
| G84U C87G U90C C96U U145G | ≤ -4.2 |
| C96U A119U G152C | -3.13 |
| A17U C54A U90G C96A C118G | ≤ -4.2 |
| C103G A107G A142G | ≤ -4.2 |
| U9G C14A C85U G141U | -4.19 |
| C85A G140U | -3 |
| A52G C76U C85G C123A U144G | -0.879 |
| G59C G133U | -3.47 |
| A40C G48A G58A C87U | -2.55 |
| G50A G59A C96U A122U A142G A147U | -3.67 |
| A40G C105U A115U A138G | ≤ -4.2 |
| A39U G86U C114U A120U G140A | ≤ -4.2 |
| C51A C57U G59U G100C A119U A122U U145G | -4.13 |
| A28U C32U G42C G84A A89G G92A C131A U148A | ≤ -4.2 |
| G50C U61A A110U U145G | ≤ -4.2 |
| A22C A41U U53C C75U | -2.58 |
| U45A C69A C95U C99G G112U C114U A147U | ≤ -4.2 |
| C57A C93G | -3.05 |

| Variant | polymerase ribozyme fitness (log ratio) |
| --- | --- |
| U4G A20U C93G U109A A138G | ≤ -4.2 |
| G143A U151G | ≤ -4.2 |
| A64G C75G G84U U127A A142U | ≤ -4.2 |
| A29U G50A G58C A60C G88A C116G U139A G141C G143C | -3.79 |
| A60C C93U C123A | -1.12 |
| A17U C38A U53A G74A C95U | ≤ -4.2 |
| A49C U56A G88U A122C C125U | ≤ -4.2 |
| C85A G140A | -4.18 |
| A52U A73C G83C G84A G92U C123G | ≤ -4.2 |
| A17G U53C A73G U139A A142U U146G | ≤ -4.2 |
| A60G U134G | -2.14 |
| U4A C51G G84A A106U C118A | ≤ -4.2 |
| A29U A52C | ≤ -4.2 |
| G42U G70C G83C G141C | ≤ -4.2 |
| A89U G143U | -2.38 |
| A22U G50U C54U A66C A91G G92U A138G | ≤ -4.2 |
| A97G U102A C129A | -3.98 |
| U33G U55G G68A C79A G84U G136U | ≤ -4.2 |
| A30U A37C G50C A91G A150G | ≤ -4.2 |
| C14G A24C | -3.63 |
| U53G C95U | -3.07 |
| G11A A12G C38U A41U C69U G83U | -3.51 |
| A120G G141C A147U | -1.01 |
| C43U C57G G70A A89G C93U | ≤ -4.2 |

| Variant | polymerase ribozyme fitness (log ratio) |
| --- | --- |
| C108G A122C | ≤ -4.2 |
| C87A U90C G117C | -3.77 |
| U45G A66C C76A G86U C96U | ≤ -4.2 |
| A26C C32G C57G | ≤ -4.2 |
| G58C G83C G117C | -0.409 |
| A28C C93U | -4.16 |
| C5A C8G A21U C54G C57U G58A C69A G81A A115U G133C G143U | ≤ -4.2 |
| U15G G46C C93A C95U | ≤ -4.2 |
| A22U C103G A110C | ≤ -4.2 |
| A21G A37U | -0.976 |
| C85U G86U C93U U130A A138U | ≤ -4.2 |
| A16C C87U G128U | ≤ -4.2 |
| G86C U101G | -2.8 |
| A3U C8U C14G A19C U33A A52C G70A C79G C87G G152U | ≤ -4.2 |
| C35U A73U G88U C108G | ≤ -4.2 |
| A16U G86A A91U A106G C108U C129A | ≤ -4.2 |
| A21G G25U G50U C54U A73G C93A C108G C129G U135G | ≤ -4.2 |
| G70C C76A C79U C87A | ≤ -4.2 |
| G11C G48A A52G C96U A113G C118U G141U A142C U151G | ≤ -4.2 |
| A52G G84A G136A | -0.512 |
| A23C C35G G58A C95A C99A C149U | ≤ -4.2 |
| A17G G58C C72U G152A | -2.87 |
| U45A C72U | ≤ -4.2 |
| A21C A40U C93A | -1.84 |

| Variant | polymerase ribozyme fitness (log ratio) |
| --- | --- |
| A47G C75G A107U U135A U148C | ≤ -4.2 |
| C5A C76U | -0.144 |
| A73U C96U C108G G141A U146G | ≤ -4.2 |
| C32U C125U | -2.22 |
| A49U U53A G86A C87A A89G C114U | ≤ -4.2 |
| A30G C35U U56G A66G U82G C99U A119U G126A A142C | ≤ -4.2 |
| A119U U127C | -2.06 |
| C8A G92C | -3.68 |
| A24C G62C G86U U102C | ≤ -4.2 |
| G48U C57G C93U G136A U146G | -2.43 |
| G42C G86U | ≤ -4.2 |
| U55A G124U U139G | 0.0477 |
| A16C A73G G92A | -3.3 |
| A24U U53A C57G A115U U151A | ≤ -4.2 |
| U13A G46U G59A A91G C95U G117A | ≤ -4.2 |
| G84U U144A | -3.22 |
| G50C C95U U146G | -3.64 |
| C79A G86A | ≤ -4.2 |
| G34C A41G C54A U135C U145G | ≤ -4.2 |
| A40G G143A | -2.88 |
| C5A U7C A22U C103G | -2.38 |
| G48A G86A A89C G94A U151G | ≤ -4.2 |
| A21G G46U | 0.452 |
| C18G C85A U145G A147U | -0.193 |

| Variant | polymerase ribozyme fitness (log ratio) |
| --- | --- |
| U6C U55G C132A A138G | ≤ -4.2 |
| C96U C131U | 0.576 |
| U15G A20U A37G U45A G50C G70U C95U C118G G141C A147C G152A | ≤ -4.2 |
| G126U | 0.31 |
| G50C U56A A73G C125A | -4.1 |
| C14G G86C | ≤ -4.2 |
| A21C C93U | -1.24 |
| C54U C105A C131G | ≤ -4.2 |
| A37C A97G U151A | ≤ -4.2 |
| C38A G42C U55G C69U U90G U146C | ≤ -4.2 |
| C54G G86A A120U | -2.8 |
| U78A A91U | ≤ -4.2 |
| A16G G25U A150G | -3.86 |
| G62U U102A | -1.64 |
| C103G A121G | -1.32 |
| A19G G59U G84U C105G | -3.78 |
| A39U A52G G74U U90A A122G C125G C129U | ≤ -4.2 |
| C54U G84A U146G | -1.56 |
| A52G U101G | -0.16 |
| A20C A21U A23C C51A C123A A138U | ≤ -4.2 |
| C76A A97G | -1.4 |
| C32G G48U G68A U134A U145C | ≤ -4.2 |
| C36A U56G G141U | ≤ -4.2 |
| C85G U135C | -3.66 |

| Variant | polymerase ribozyme fitness (log ratio) |
| --- | --- |
| U13A A20U U77A | ≤ -4.2 |
| A37C G86A | -1.34 |
| U55A G80A C85A | -1.39 |
| U53A A150C | -3.56 |
| G124A U148G | -3.69 |
| U55A A64C | ≤ -4.2 |
| A49G U56G G83C | -2.85 |
| U7C A20U C96A C103U U109C G152U | -3.42 |
| G50C A64G A89C G94C U101G A106U G133U | -4.12 |
| U15A A60G G80U C96U A122C | -1.4 |
| C35A C85A | -3.65 |
| C38U C51G U82C C96A A97U C125G | -3.55 |
| A12C A20U U61A G92U C131A | ≤ -4.2 |
| G50C G94A C129U U135G | ≤ -4.2 |
| A17G U53A | -0.401 |
| C18U C54A A64G G83C A119U A147C | ≤ -4.2 |
| C76A G83C A137G | -3.62 |
| A24U G80C G86U C125G A137C | ≤ -4.2 |
| A30U A39G A98G C99U C105G | ≤ -4.2 |
| G86A A122G U148G | ≤ -4.2 |
| A16C C51A A89U G94A A98U | -3.95 |
| U13G C51G A91C | ≤ -4.2 |
| A21G C27A G46A A73G C87A | ≤ -4.2 |
